Assays:
[1] = tested on: MDA-MB-435 tumor-bearing mice; assay: MicroPET imaging; type: in vivo, mouse; settings: co-injection with 300 µg unlabeled c(RGDfk) per mouse
[2] = MicroPET imaging; type: in vivo, mouse; settings: female, athymic nude, mouse, in vivo, 100 uCi, total radioactivity

With `CC(=O)N(O)CCCCCNC(=O)CCC(=O)N(O)CCCCCNC(=O)CCC(=O)N(O)CCCCCNC(=S)Nc1ccc(NC(=S)NCCOCCOCCOCCOCCC(=O)N[C@@H](CCC(=O)NCCOCCOCCOCCOCCC(=O)NCCCC[C@@H]2NC(=O)[C@@H](Cc3ccccc3)NC(=O)[C@H](CC(=O)O)NC(=O)CNC(=O)[C@H](CCCNC(=N)N)NC2=O)C(=O)NCCOCCOCCOCCOCCC(=O)NCCCC[C@@H]2NC(=O)[C@@H](Cc3ccccc3)NC(=O)[C@H](CC(=O)O)NC(=O)CNC(=O)[C@H](CCCNC(=N)N)NC2=O)cc1` [^89Zr-Df-[FK]2-3PEG4, metal not drawn] the “decrease of tumor uptake (PET) by blocking” value [1] was “approximately 90%”, the tissue to tissue ratio at 0.5 h [2] was 12.6 ± 1.07 and the tissue to tissue ratio at 1 h [2] was 16.2 ± 3.23. The tissue to tissue ratio at 2 h [2] was 18.2 ± 2.52, the tissue to tissue ratio at 4 h [2] was 19.7 ± 3.99 and the tissue to tissue ratio at 24 h [2] was 10.8 ± 1.31. It also gave a tissue uptake at 0.5 h ([2]; SD) of 3.98 ± 0.5 %ID/g, a tissue uptake at 2 h ([2]; SD) of 4.72 ± 0.66 %ID/g and a tissue uptake at 4 h ([2]; SD) of 4.47 ± 0.81 %ID/g. For the same compound, the tissue uptake at 24 h ([2]; SD) was 2.2 ± 0.26 %ID/g.
